Data reported in PMC7736794.

B1: Flag-USP36 wild type [not stated] / Myc-PrimPol WT [not stated] (parent)
chain 1: MPIVDKLKEALKPGRKDSADDGELGKLLASSAKKVLLQKIEFEPASKSFSYQLEALKSKYVLLNPKTEGASRHKSGDDPPARRQGSEHTYESCGDGVPAPQKVLFPTERLSLRWERVFRVGAGLHNLGNTCFLNATIQCLTYTPPLANYLLSKEHARSCHQGSFCMLCVMQNHIVQAFANSGNAIKPVSFIRDLKKIARHFRFGNQEDAHEFLRYTIDAMQKACLNGCAKLDRQTQATTLVHQIFGGYLRSRVKCSVCKSVSDTYDPYLDVALEIRQAANIVRALELFVKADVLSGENAYMCAKCKKKVPASKRFTIHRTSNVLTLSLKRFANFSGGKITKDVGYPEFLNIRPYMSQNNGDPVMYGLYAVLVHSGYSCHAGHYYCYVKASNGQWYQMNDSLVHSSNVKVVLNQQAYVLFYLRIPGSKKSPEGLISRTGSSSLPGRPSVIPDHSKKNIGNGIISSPLTGKRQDSGTMKKPHTTEEIGVPISRNGSTLGLKSQNGCIPPKLPSGSPSPKLSQTPTHMPTILDDPGKKVKKPAPPQHFSPRTAQGLPGTSNSNSSRSGSQRQGSWDSRDVVLSTSPKLLATATANGHGLKGNDESAGLDRRGSSSSSPEHSASSDSTKAPQTPRSGAAHLCDSQETNCSTAGHSKTPPSGADSKTVKLKSPVLSNTTTEPASTMSPPPAKKLALSAKKASTLWRATGNDLRPPPPSPSSDLTHPMKTSHPVVASTWPVHRARAVSPAPQSSSRLQPPFSPHPTLLSSTPKPPGTSEPRSCSSISTALPQVNEDLVSLPHQLPEASEPPQSPSEKRKKTFVGEPQRLGSETRLPQHIREATAAPHGKRKRKKKKRPEDTAASALQEGQTQRQPGSPMYRREGQAQLPAVRRQEDGTQPQVNGQQVGCVTDGHHASSRKRRRKGAEGLGEEGGLHQDPLRHSCSPMGDGDPEAMEESPRKKKKKKRKQETQRAVEEDGHLKCPRSAKPQDAVVPESSSCAPSANGWCPGDRMGLSQAPPVSWNGERESDVVQELLKYSSDKAYGRKVLTWDGKMSAVSQDAIEDSRQARTETVVDDWDEEFDRGKEKKIKKFKREKRRNFNAFQKLQTRRNFWSVTHPAKAASLSYRR
chain 2: MNRKWEAKLKQIEERASHYERKPLSSVYRPRLSKPEEPPSIWRLFHRQAQAFNFVKSCKEDVHVFALECKVGDGQRIYLVTTYAEFWFYYKSRKNLLHCYEVIPENAVCKLYFDLEFNKPANPGADGKKMVALLIEYVCKALQELYGVNCSAEDVLNLDSSTDEKFSRHLIFQLHDVAFKDNIHVGNFLRKILQPALDLLGSEDDDSAPETTGHGFPHFSEAPARQGFSFNKMFTEKATEESWTSNSKKLERLGSAEQSSPDLSFLVVKNNMGEKHLFVDLGVYTRNRNFRLYKSSKIGKRVALEVTEDNKFFPIQSKDVSDEYQYFLSSLVSNVRFSDTLRILTCEPSQNKQKGVGYFNSIGTSVETIEGFQCSPYPEVDHFVLSLVNKDGIKGGIRRWNYFFPEELLVYDICKYRWCENIGRAHKSNNIMILVDLKNEVWYQKCHDPVCKAENFKSDCFPLPAEVCLLFLFKEEEEFTTDEADETRSNETQNPHKPSPSRLSTGASADAVWDNGIDDAYFLEATEDAELAEAAENSLLSYNSEVDEIPDELIIEVLQE

Variants of: B1
Assay: co-immunoprecipitation (anti-Flag agarose beads), immunoblot band quantification
Conditions: with Myc-PrimPol WT; USP36 stably knocked-down HEK293T cells; HU (10 mM) for 8 h; parent: 1.6; read off a plot; scale: relative band intensity

| response | Variant |
| --- | --- |
| 1.6 | chain 1 K329R K338R |

Same assay, conditions: with Myc-PrimPol WT; USP36 stably knocked-down HEK293T cells; untreated (Ctrl); parent: 1; read off a plot; scale: relative band intensity

| response | Variant |
| --- | --- |
| 1.6 | chain 1 K329R K338R |
